Assay results reported in patent US20090111098A1, “REPORTER GENE ASSAY” (Shionogi & Co., Ltd., priority 2005, published 2009).

System: IL-4 regulatory element (STAT6)
Assay: Confirmation of transcriptional regulatory activity: IL-4 stimulation of reporter-transfected HeLa cells, HTRF ratio value
Type: cell-based, human
Details: HeLa cells transfected with reporter plasmid; IL-4 0-100 ng/ml, 3-48 hours
Description: HeLa cells (cells deposited with ATCC) were dispersed at a density of 1.2×10^5 cells/ml in a medium (MEM medium containing 10% fetal bovine serum, 100 units/ml penicillin G, 100 μg/ml streptomycin) and then put in a volume of 100 μl per well on a 96-well tissue culture plate. After 24 hours, 20 μg of the reporter plasmid prepared in Example 1, and 60 μl FuGENE6 (Roche), were added to 2 ml FBS-free medium, then left at room temperature for 20 minutes, and added in a volume of 5 μl to each well, followed by incubation for 24 hours to transfect the cells with the reporter plasmid.
After the culture supernatant of the cells was removed, 100 μl of IL-4 diluted with a medium was added at final concentrations of 0, 4, 20 and 100 ng/ml respectively to the respective wells and cultured for 3, 6, 24 and 48 hours. After culture, a cell lysis buffer (Tris buffered physiological saline containing 1% Triton X-100, 5 mM EDTA and a protease inhibitor cocktail) was added in a volume of 100 μl to each well and left at room temperature for 1 hour. […] After the reaction was finished, the fluorescence intensity of each well at 665 nm was measured with a time-resolved fluorescence microplate reader (Rubystar, BMG Labtechnologies). The measurement value was expressed as the ratio value to the fluorescence intensity of cryptate at 620 nm.

B1: IL-4: cytokine that binds IL-4 receptors and activates JAK1/JAK3 and transcription factor STAT6 (protein, UniProt P05112 25-153, looked up)
Interleukin-4: HKCDITLQEIIKTLNSLTEQKTLCTELTVTDIFAASKNTTEKETFCRAATVLRQFYSHHEKDTRCLGATAQQFHRHKQLIRFLKRLDRNLWGLAGLNSCPVKEANQSTLENFLERLKTIMREKYSKCSS
increase in ratio value by stimulation with IL-4: about 10 fold
